This passage reports EC50 and Kd results from patent US20240052052A1 (published 2024).

Assay [1] addresses T1, human CD24 (human, UniProt P25063 27-59, heavily glycosylated, GPI-anchored (as described in the background)).
T1 chain: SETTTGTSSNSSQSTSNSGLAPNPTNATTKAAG
Put plainly: FACS binding; DoHH2 cells. Background: Flow cytometry measures light scatter and fluorescence of single cells or particles in a stream.

Assay [2] has as its target T2, Human CD24-mFc (human, UniProt P25063 27-59).
T2 chain: T1 chain
The assay is described as follows: SPR (BIAcore). Background: SPR reads the build-up and loss of mass on a sensor chip optically.

Assay [3] addresses T1, human CD24. Put plainly: FACS binding; Nalm6 cells.
Assay [4] has as its target T1, human CD24. Put plainly: FACS binding; Huh7 cells.
In assay [5] the target is T2, Human CD24-mFc. Put plainly: BLI (Gatorprime).

Substitutions are numbered along the chain they refer to.

A word on the EC50: it is the concentration at which the effect is half-maximal. Read a low EC50 as an effect from little substance. The Kd is the constant that tells how readily two partners part at equilibrium.

B1: 101H9G9A2 (antibody, V domains shown)
VH: QVQLLQPGAELVRPGSSVKLSCKASDYTFTSYWMDWVKQRPGQGLEWIGNIYPSDSKTHYNQKFKDKATLTVDKSSSTAYMQLNSLTSEDSAVYYCARRGGYYAYAMDYWGQGTSVTVSS
VL: DIVMTQSPSSLSVSAGEKVTMRCKSSQSLLNSGNQDNYLAWYQQKPGQPPKLLLYGARIRESGVPDRFIGSGSGTDFTLTISSVQAEDLAVYYCQNDHSYPYTFGGGTKVEIK
Take B1: the half-maximal effective concentration (EC50) with human CD24 [1] was 0.218 nM; in the assay with human CD24 [3], 2.55 nM. Further, the Kd in the assay with Human CD24-mFc [2] amounted to 1.24 nM.

B2: 100F2E3 (antibody, V domains shown)
VH: B1 VH with L5Q, A24T, Y60S, K65R, A104G
VL: B1 VL with R22S, L54I, R58S, I69T, V110L
In the case of B2, the response in the assay with human CD24 [3] was half-maximal at 7.84 nM (EC50). This lies in the single-digit nanomolar range.

B3: 110D4G4 (antibody, V domains shown)
VH: EVQLQQSGPGLVKPGASVKISCRASGYLFTGYYMNWVKQSPEKSLEWIGEINPNTGDPRYDQKFKAKATLTVDRSSSTAYMHLKSLTSEDSAVYFCARRDYGTSLDYWGQGTTLTVTS
VL: DVQITQSPSYLAASPGETITINCRASKSISKYLAWYQEKPGKTNKLLIYSGSTLQSGIPSRFSGSGSGSDFTLTISSLEPEDFAMYYCQQHNEYPLTFGAGTKLELK
Turning to B3, the half-maximal effective concentration (EC50) in the assay with human CD24 [1] stood at 0.61 nM; in the assay with human CD24 [3] it was 24.6 nM. Further, in the assay with Human CD24-mFc [2], the dissociation constant Kd amounted to 0.124 nM.

B4: 73H5-1G2 (antibody, V domains shown)
VH: QVQLKQSGPGLVQPSQSLSITCTVSGFSLTNYGVHWIRQSPGKGLEWLGVIWRGGSTDYNAAFMSRLSITKDNSKSQVFFQMNSLQAADTAIYYCANNYGYDCFAYWGQGTLVTVSA
VL: B3 VL with S30I, S69T, S76T, K103R
The molecule B4 displayed an EC50 with human CD24 [3] of 108 nM.

B5: 81A1F8 (antibody, V domains shown)
VH: EVQLQQSGPELVKPGASVKISCKATGYLFTGYYMNWVKQSPEKSLEWIGEINPNTGDTNNNQKFKAKATMTVDRSSSTAYMQLKRLTSEDSAVYYCVRRDYGTSLDYWGQGTTLTVSS
VL: B3 VL with S30N, Y49H, G66R, S69T, S77N, L96I
As for B5, the EC50 came out at 0.819 nM with human CD24 [1] and 11.4 nM with human CD24 [3]. This molecule also displayed an equilibrium dissociation constant (Kd) with Human CD24-mFc [2] of 0.095 nM.

B6: ch110D4G4-hIgG4 (antibody, V domains shown)
VH: B3 VH
VL: B3 VL
The molecule B6 gave an EC50 in the assay with human CD24 [4] of 1.72 nM.

B7: 33E7E12 (antibody, V domains shown)
VH: EVKLEESGGGLVQPGGSMKLSCFVSGFTFSNSWMNWVRQSPEKGLEWVAQIQLKSDNYATRYVESVRGRFIISRDDSKSSVSLQMNNLRTEDTGIYYCSSGTDYWGQGTTLTVSS
VL: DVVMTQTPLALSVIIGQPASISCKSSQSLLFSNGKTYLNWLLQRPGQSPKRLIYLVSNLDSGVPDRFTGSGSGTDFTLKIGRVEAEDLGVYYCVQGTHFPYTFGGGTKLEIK
Regarding B7, the EC50 in the assay with human CD24 [1] was found to be 5.08 nM; in the assay with human CD24 [3] it was 21.5 nM. Moreover, the affinity in the assay with Human CD24-mFc [2], expressed as Kd, was 3.08 nM.

B8: 107D10D11 (antibody, V domains shown)
VH: QIQLKQSGPGLVQPSQSLSITCTVSGFSLSSYGVNWVRQSPGKGLEWLGMIWSGGNTDYNAAFISRVSFTKDNSKSQVFFTMNSLQADDTAIYYCARIWYYGMDYWGQGTSVTVSS
VL: DIVMTQSQKFMSTTVGDRVSITCKASQNVGTAVAWFQQKPGQSPKILIYSASIRYPGVPDRFTGSGSGTDFTLTTSNVQSEDLADYFCLQYITFPRTFGGGTKLYIK
In the case of B8, the affinity with Human CD24-mFc [2], expressed as Kd, was 0.762 nM. In other words, the sub-nanomolar range.

B9: 58F10-1F6 (antibody, V domains shown)
VH: EVQLRQSGPELVKPGAAVKISCKASGYSFTGYHMNWVKQSPEKSLEWIGEINPITSGITYNQIFKAKATLTVDKSSSTAYLQLKSLTSEDSAVYYCTRRDYGTSLDYWGQGTTLTVSS
VL: DIQMTQITSSLSASLGDRVTITCRASQDISNYLNWYQQKPDGTVKLLIYYTSRLLSGVPSRFSGSGSGTDYSLTISNLEQEDIATYFCQQDHTLPRTFGGGTKLEIR
Consider B9, for which the half-maximal effective concentration (EC50) with human CD24 [3] worked out at 70.6 nM.

B10: 71A4F12 (antibody, V domains shown)
VH: EVQLQQSGPELVKPGASVKIPCKASGYTFTAYNMDWVKQSHGMSLEWIGDINPNNGDTVYNQNFKGKATLTVDKSSSTAYMELRSLTSEDTAVYYCARRGSYYYGSSHYALDFWGQGTSVSVSS
VL: B9 VL with D17N, T22S, S30R, H92N, T93S, K103R
In the assay with human CD24 [3], B10 came in with an EC50 of 24.9 nM.

B11: 56A7E3 (antibody, V domains shown)
VH: B10 VH with N54I, D57G, V59I, K65E, M81L
VL: B9 VL
In the assay with human CD24 [3], B11 had an EC50 of 29.2 nM.

B12: 81A1F8-VH-11/VL-11 (antibody, V domains shown)
VH: QVQLVQSGAEVKKPGASVKVSCKASGYLFTGYYMNWVRQAPGQGLEWMGEINPNTGDTNNNQKFKARVTMTVDRSISTAYMELSRLRSDDTAVYYCVRRDYGTSLDYWGQGTLVTVSS
VL: DVQITQSPSSLSASVGDRVTITCRASKSINKYLAWYQQKPGKAPKLLIHSGSTLQSGVPSRFSGSRSGTDFTLTISSLQPEDFATYYCQQHNEYPITFGQGTKLEIK
With B12, in the assay with Human CD24-mFc [5], binding was put at a Kd of 0.0204 nM.

B13: 81A1F8-VH-21/VL-31 (antibody, V domains shown)
VH: B12 VH with I76T, R85S, D89E
VL: B12 VL with A43V
B13 came in with a Kd in the assay with Human CD24-mFc [5] of 0.712 nM. Against the preceding molecule, the Kd is about 35-fold higher.

B14: 81A1F8-VH-11/VL-41 (antibody, V domains shown)
VH: B12 VH
VL: B12 VL with S10T, D70E, E81D
Turning to B14, in the assay with Human CD24-mFc [5], binding was put at a Kd of 0.619 nM.

B15: 81A1F8-VH-21/VL-21 (antibody, V domains shown)
VH: B12 VH with I76T, R85S, D89E
VL: B12 VL with S10F, D70E
The molecule B15 registered a Kd in the assay with Human CD24-mFc [5] of 0.0819 nM.

B16: 81A1F8-VH-21/VL-41 (antibody, V domains shown)
VH: B12 VH with I76T, R85S, D89E
VL: B12 VL with S10T, D70E, E81D
In the case of B16, the dissociation constant (Kd) with Human CD24-mFc [5] is 0.525 nM.

B17: 81A1F8-VH-31/VL-11 (antibody, V domains shown)
VH: B12 VH with G44R, M70I, I76A, R85S, D89E
VL: B12 VL
B17 registered a dissociation constant (Kd) in the assay with Human CD24-mFc [5] of 0.247 nM.

B18: 81A1F8-VH-11/VL-21 (antibody, V domains shown)
VH: B12 VH
VL: B12 VL with S10F, D70E
In the assay with Human CD24-mFc [5], B18 came in with a dissociation constant (Kd) of 0.139 nM. Compared with the last molecule, the Kd is about 1.8-fold lower.

B19: 81A1F8-VH-31/VL-41 (antibody, V domains shown)
VH: B12 VH with G44R, M70I, I76A, R85S, D89E
VL: B12 VL with S10T, D70E, E81D
Turning to B19, in the assay with Human CD24-mFc [5], the equilibrium dissociation constant (Kd) came to 21600 nM.

B20: 81A1F8-VH-21/VL-11 (antibody, V domains shown)
VH: B12 VH with I76T, R85S, D89E
VL: B12 VL
B20: binding with Human CD24-mFc [5] was put at a Kd of 0.0158 nM.

B21: 81A1F8-VH-31/VL-31 (antibody, V domains shown)
VH: B12 VH with G44R, M70I, I76A, R85S, D89E
VL: B12 VL with A43V
Take B21: the dissociation constant (Kd) in the assay with Human CD24-mFc [5] was determined as 1.11 nM. This Kd is about 70-fold higher than that of the molecule before.
